According to article PMC10723112 (Nature chemical biology, 2023):
Non-standard residues stand in square brackets, D forms with d. No end group written: not given here. pY = N[C@@H](Cc1ccc(OP(=O)(O)O)cc1)C(=O)O

Key:
[1] = biological target: 5-FAM-SMG9 peptide (human) (UniProt Q9H0W8); assay: fluorescence polarisation
OGT = biological target: T1, OGT (Homo sapiens, UniProt O15294); assay: Competitive fluorescence polarization; details: FP competition with 5-FAM-SMG9 for OGT binding, n=3
T1 sequence (O15294 1-1046): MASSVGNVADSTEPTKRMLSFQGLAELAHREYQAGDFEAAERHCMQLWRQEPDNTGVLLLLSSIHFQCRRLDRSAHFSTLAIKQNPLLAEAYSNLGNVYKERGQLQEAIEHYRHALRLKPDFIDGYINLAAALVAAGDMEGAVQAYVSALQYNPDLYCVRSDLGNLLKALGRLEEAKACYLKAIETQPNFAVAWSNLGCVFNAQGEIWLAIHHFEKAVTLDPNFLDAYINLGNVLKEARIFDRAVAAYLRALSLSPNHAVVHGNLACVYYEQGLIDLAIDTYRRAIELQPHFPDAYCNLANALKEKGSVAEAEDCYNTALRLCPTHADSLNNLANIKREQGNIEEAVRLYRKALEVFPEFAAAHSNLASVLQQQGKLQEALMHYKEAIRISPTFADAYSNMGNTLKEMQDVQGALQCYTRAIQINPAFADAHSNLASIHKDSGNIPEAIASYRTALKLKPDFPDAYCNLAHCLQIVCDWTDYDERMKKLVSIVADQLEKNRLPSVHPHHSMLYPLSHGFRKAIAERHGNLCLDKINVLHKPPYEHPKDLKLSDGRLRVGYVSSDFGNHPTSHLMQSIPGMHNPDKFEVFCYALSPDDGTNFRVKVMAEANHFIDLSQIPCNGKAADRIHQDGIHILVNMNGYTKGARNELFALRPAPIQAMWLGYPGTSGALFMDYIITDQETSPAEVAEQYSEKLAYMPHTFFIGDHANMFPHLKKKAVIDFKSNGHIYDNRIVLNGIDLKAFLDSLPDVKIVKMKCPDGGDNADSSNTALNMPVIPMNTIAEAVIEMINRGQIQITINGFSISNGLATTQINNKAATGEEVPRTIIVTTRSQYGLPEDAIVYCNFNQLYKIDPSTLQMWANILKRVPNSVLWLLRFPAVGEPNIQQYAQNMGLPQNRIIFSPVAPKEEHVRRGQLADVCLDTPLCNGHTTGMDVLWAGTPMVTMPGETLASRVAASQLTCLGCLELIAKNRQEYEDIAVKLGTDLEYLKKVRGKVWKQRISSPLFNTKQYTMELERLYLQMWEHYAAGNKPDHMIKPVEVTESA

Substance	fold shift of EC50 against WT OGT [1] [fold]	peptide binding to OGT (OGT)
OGT F723E (enzyme)	> 10	–
OGT I734R (enzyme)	> 10	–
OGT N791A (enzyme)	> 10	–
SMG9 pY147: phosphorylated SMG9 peptide (pY147) (QRPTQPV[pY]QIQNRGMG)	–	disrupted peptide binding, to a similar degree as Y147F
